According to article PMC6341091:

B1: FOXP3: TMG (protein)
parent chain: MPNPRPAKPMAPSLALGPSPGVLPSWKTAPKGSELLGTRGSGGPFQGRDLRSGAHTSSSLNPLPPSQLQLPTVPLVMVAPSGARLGPSPHLQALLQDRPHFMHQLSTVDAHAQTPVLQVRPLDNPAMISLPPPSAATGVFSLKARPGLPPGINVASLEWVSREPALLCTFPRSGTPRKDSNLLAAPQGSYPLLANGVCKWPGCEKVFEEPEEFLKHCQADHLLDEKGKAQCLLQREVVQSLEQQLELEKEKLGAMQAHLAGKMALAKAPSVASMDKSSCCIVATSTQGSVLPAWSAPREAPDGGLFAVRRHLWGSHGNSSFPEFFHNMDYFKYHNMRPPFTYATLIRWAILEAPERQRTLNEIYHWFTRMFAYFRNHPATWKNAIRHNLSLHKCFVRVESEKGAVWTVDEFEFRKKRSQRPNKCSNPCP
B2: FOXP3: ST045849 (protein)
parent chain: MPNPRPAKPMAPSLALGPSPGVLPSWKTAPKGSELLGTRGSGGPFQGRDLRSGAHTSSSLNPLPPSQLQLPTVPLVMVAPSGARLGPSPHLQALLQDRPHFMHQLSTVDAHAQTPVLQVRPLDNPAMISLPPPSAATGVFSLKARPGLPPGINVASLEWVSREPALLCTFPRSGTPRKDSNLLAAPQGSYPLLANGVCKWPGCEKVFEEPEEFLKHCQADHLLDEKGKAQCLLQREVVQSLEQQLELEKEKLGAMQAHLAGKMALAKAPSVASMDKSSCCIVATSTQGSVLPAWSAPREAPDGGLFAVRRHLWGSHGNSSFPEFFHNMDYFKYHNMRPPFTYATLIRWAILEAPERQRTLNEIYHWFTRMFAYFRNHPATWKNAIRHNLSLHKCFVRVESEKGAVWTVDEFEFRKKRSQRPNKCSNPCP
B3: FOXP3: FOXP3-5A (protein)
parent chain: MPNPRPAKPMAPSLALGPSPGVLPSWKTAPKGSELLGTRGSGGPFQGRDLRSGAHTSSSLNPLPPSQLQLPTVPLVMVAPSGARLGPSPHLQALLQDRPHFMHQLSTVDAHAQTPVLQVRPLDNPAMISLPPPSAATGVFSLKARPGLPPGINVASLEWVSREPALLCTFPRSGTPRKDSNLLAAPQGSYPLLANGVCKWPGCEKVFEEPEEFLKHCQADHLLDEKGKAQCLLQREVVQSLEQQLELEKEKLGAMQAHLAGKMALAKAPSVASMDKSSCCIVATSTQGSVLPAWSAPREAPDGGLFAVRRHLWGSHGNSSFPEFFHNMDYFKYHNMRPPFTYATLIRWAILEAPERQRTLNEIYHWFTRMFAYFRNHPATWKNAIRHNLSLHKCFVRVESEKGAVWTVDEFEFRKKRSQRPNKCSNPCP
B4: FOXP3: OGT overexpression (protein)
parent chain: MPNPRPAKPMAPSLALGPSPGVLPSWKTAPKGSELLGTRGSGGPFQGRDLRSGAHTSSSLNPLPPSQLQLPTVPLVMVAPSGARLGPSPHLQALLQDRPHFMHQLSTVDAHAQTPVLQVRPLDNPAMISLPPPSAATGVFSLKARPGLPPGINVASLEWVSREPALLCTFPRSGTPRKDSNLLAAPQGSYPLLANGVCKWPGCEKVFEEPEEFLKHCQADHLLDEKGKAQCLLQREVVQSLEQQLELEKEKLGAMQAHLAGKMALAKAPSVASMDKSSCCIVATSTQGSVLPAWSAPREAPDGGLFAVRRHLWGSHGNSSFPEFFHNMDYFKYHNMRPPFTYATLIRWAILEAPERQRTLNEIYHWFTRMFAYFRNHPATWKNAIRHNLSLHKCFVRVESEKGAVWTVDEFEFRKKRSQRPNKCSNPCP
B5: FOXP3: OGA overexpression (protein)
parent chain: MPNPRPAKPMAPSLALGPSPGVLPSWKTAPKGSELLGTRGSGGPFQGRDLRSGAHTSSSLNPLPPSQLQLPTVPLVMVAPSGARLGPSPHLQALLQDRPHFMHQLSTVDAHAQTPVLQVRPLDNPAMISLPPPSAATGVFSLKARPGLPPGINVASLEWVSREPALLCTFPRSGTPRKDSNLLAAPQGSYPLLANGVCKWPGCEKVFEEPEEFLKHCQADHLLDEKGKAQCLLQREVVQSLEQQLELEKEKLGAMQAHLAGKMALAKAPSVASMDKSSCCIVATSTQGSVLPAWSAPREAPDGGLFAVRRHLWGSHGNSSFPEFFHNMDYFKYHNMRPPFTYATLIRWAILEAPERQRTLNEIYHWFTRMFAYFRNHPATWKNAIRHNLSLHKCFVRVESEKGAVWTVDEFEFRKKRSQRPNKCSNPCP

Tests used:
[1] = CHX chase, HEK 293, western blot; details: control: no OGT/OGA overexpression or no inhibitor
[2] = western blot of total FOXP3, HEK 293; details: control: no OGT/OGA overexpression or no inhibitor
[3] = not described in main text (Supplementary Fig. 2F); details: glycan lost; control: wild-type FOXP3
[4] = CHX chase, HEK 293, OGT overexpression, western blot; details: glycan lost; control: wild-type FOXP3
[5] = retroviral transduction of CD4+CD25- T cells, FOXP3 MFI; details: glycan lost; control: wild-type FOXP3

| Protein | degradation_or_half_life ([1]; glycan gained) | expression_or_secretion ([2]; glycan gained) | degradation_or_half_life ([1]; glycan lost) | expression_or_secretion ([2]; glycan lost) | other results |
| --- | --- | --- | --- | --- | --- |
| B1 | increases | increases | – | – | – |
| B2 | – | – | decreases | decreases | – |
| B3 | – | – | – | – | other: OGT-induced transcriptional suppression activity [3]: abolishes; degradation_or_half_life [4]: decreases; expression_or_secretion [5]: decreases |
| B4 | increases | increases | – | – | – |
| B5 | – | – | decreases | decreases | – |
